# Reference: publication PMC4491177, “Co-translational capturing of nascent ribosomal proteins by their dedicated chaperones” (Nature Communications, 2015)
# Ends that are not written are not given here.
# T1: Rpl10 (endogenous) (S. cerevisiae (endogenous in yeast …, UniProt P41805 1-221))
# T1 sequence (looked up): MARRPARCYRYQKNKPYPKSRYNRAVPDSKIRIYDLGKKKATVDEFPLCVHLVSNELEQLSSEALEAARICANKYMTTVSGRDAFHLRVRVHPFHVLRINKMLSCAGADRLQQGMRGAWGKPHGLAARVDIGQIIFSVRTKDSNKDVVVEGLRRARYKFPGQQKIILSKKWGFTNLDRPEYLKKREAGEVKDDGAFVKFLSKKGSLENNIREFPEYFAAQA
# B1: Rpl10-2xHA: C-terminally 2xHA-tagged Rpl10 (protein)
# chain: T1 sequence (looked up)
# modifications: left off: 2xHA, C-terminal, kept
# notes: C-terminally 2xHA-tagged Rpl10
# B2: NTAP-Rrb1 (natural protein, S. cerevisiae, UniProt Q04225 1-511, looked up)
# chain: MSKRSIEVNEEQDRVVSAKTESHSVPAIPASEEQDAPKNDLEEQLSDEFDSDGEIIEIDGDDEINDEDDLRKKQEEAETLVQKDQSEGNKEKIQELYLPHMSRPLGPDEVLEADPTVYEMLHNVNMPWPCLTLDVIPDTLGSERRNYPQSILLTTATQSSRKKENELMVLALSNLAKTLLKDDNEGEDDEEDDEDDVDPVIENENIPLRDTTNRLKVSPFAISNQEVLTATMSENGDVYIYNLAPQSKAFSTPGYQIPKSAKRPIHTVKNHGNVEGYGLDWSPLIKTGALLSGDCSGQIYFTQRHTSRWVTDKQPFTVSNNKSIEDIQWSRTESTVFATAGCDGYIRIWDTRSKKHKPAISVKASNTDVNVISWSDKIGYLLASGDDNGTWGVWDLRQFTPSNADAVQPVAQYDFHKGAITSIAFNPLDESIVAVGSEDNTVTLWDLSVEADDEEIKQQAAETKELQEIPPQLLFVHWQKEVKDVKWHKQIPGCLVSTGTDGLNVWKTISV
# B3: Rrb1: dedicated chaperone of Rpl3; purified as NTAP-Rrb1 in b27 (protein, UniProt Q04225 1-511, looked up)
# Ribosome assembly protein RRB1: B2 chain
# B4: Sqt1-TAP (natural protein, S. cerevisiae, UniProt P35184 1-431, looked up)
# chain: MEPQEEFITTEEVEQEIVPTVEVEQDVPVDIEGENDDDDEMMNDDEEALEVDMSNNSLTYFDKHTDSVFAIGHHPNLPLVCTGGGDNLAHLWTSHSQPPKFAGTLTGYGESVISCSFTSEGGFLVTADMSGKVLVHMGQKGGAQWKLASQMQEVEEIVWLKTHPTIARTFAFGATDGSVWCYQINEQDGSLEQLMSGFVHQQDCSMGEFINTDKGENTLELVTCSLDSTIVAWNCFTGQQLFKITQAEIKGLEAPWISLSLAPETLTKGNSGVVACGSNNGLLAVINCNNGGAILHLSTVIELKPEQDELDASIESISWSSKFSLMAIGLVCGEILLYDTSAWRVRHKFVLEDSVTKLMFDNDDLFASCINGKVYQFNARTGQEKFVCVGHNMGVLDFILLHPVANTGTEQKRKVITAGDEGVSLVFEVPN
# What was measured:
# [1] = test system: Rrb1; experiment: Y2H interaction with Rrb1; assay type: binding, S. cerevisiae; conditions: reporter strain PJ69-4A, HIS3 and ADE2 reporters, 3 days at 30 °C
# Method: For Y2H interaction assays, plasmids expressing bait proteins, fused to the Gal4 DNA-binding domain (G4BD), and prey proteins, fused to the Gal4 activation domain (G4AD), were co-transformed into reporter strain PJ69-4A. Y2H interactions were documented by spotting representative transformants in 10-fold serial dilution steps onto SC-Trp-Leu, SC-Trp-Leu-His (HIS3 reporter) and SC-Trp-Leu-Ade (ADE2 reporter) plates, which were incubated for 3 days at 30 °C. Growth on SC-Trp-Leu-His plates is indicative of a weak/moderate interaction, whereas only relatively strong interactions permit growth on SC-Trp-Leu-Ade plates.
# [2] = test system: sqt1 mutant cells; experiment: in vivo ribosomal protein solubility assay; assay type: cell-based, S. cerevisiae; conditions: expressed for 20 min from copper-inducible promoter; in sqt1.E315A and sqt1.E110A/D420A mutant cells; 200,000g 1 h
# Method: The sqt1 mutant cells, either containing empty vector or a centromeric plasmid expressing Sqt1 from the ADH1 promoter, were grown in a volume of 100 ml to an OD600 of ∼0.7 and expression of C-terminally 2xHA-tagged Rpl10 was induced for 20 min from the CUP1 promoter with 500 μM copper sulfate. After harvesting, cells were lysed with glass beads in a buffer containing 50 mM Tris-HCl (pH 7.5), 100 mM NaCl, 1.5 mM MgCl2, 5% glycerol and 0.1% NP-40, and cell extracts were centrifuged for 3 min at 3,000 r.p.m. Then, total cell extracts, 10 A260 units in a final volume of 500 μl, were subjected to centrifugation at 200,000g for 1 h. Pellets were resuspended in 100 μl lysis buffer and equal amounts of the total extracts (T), soluble extracts (S) and pellet fractions (P) were analysed by SDS–polyacrylamide gel electrophoresis and western blotting using an anti-HA antibody.
# Supplementary Figure 9 Sqt1 is required for the soluble expression of Rpl10 in yeast.
# Expression of C-terminally 2xHA-tagged Rpl10 (Rpl10-2xHA) was induced for 20 min from the CUP1 promoter with 500 µM copper sulfate in sqt1.E315A or sqt1.E110A/D420A mutant cells containing empty vector (vector) or a plasmid expressing Sqt1 from the constitutive ADH1 promoter (SQT1). […]
# [3] = target: Rpl3 (endogenous) (S. cerevisiae (endogenous in yeast …, UniProt P14126 1-387)); experiment: cell-based or functional assay
# [4] = soluble expression in E. coli; assay type: physicochemical; conditions: data not shown for Rpl10
# [5] = test system: RPL3 mRNA; experiment: co-translational capturing by qRT-PCR, RPL3 mRNA; assay type: binding, S. cerevisiae; conditions: NTAP-Rrb1 purification, cycloheximide-treated cells; one representative experiment, qPCR triplicates
# Method: Cells expressing Sqt1-TAP, NTAP-Rrb1, Syo1-FTpA and Yar1-TAP were grown at 30 °C in 400 ml YPD medium to an optical density (OD600) of 0.8, then cycloheximide was added to a final concentration of 0.2 mg ml^−1 and the flasks were kept, with intermittent vigorous shaking, on ice for 5 min. Cells were harvested by centrifugation for 5 min at 4 °C at 4,000 r.p.m., washed once with 20 ml of ice-cold lysis buffer (100 mM NaCl, 50 mM Tris-HCl (pH 7.5), 1.5 mM MgCl2, 0.1% NP-40 and 5% glycerol) containing 1 mM PMSF and 0.2 mg ml^−1 cycloheximide (lysis buffer-PC) and resuspended in 2 ml of lysis buffer-PC. Equal volumes of the resuspended cells were transferred into two 2.2 ml Eppendorf tubes, briefly centrifuged and resuspended in 600 μl of ice-cold lysis buffer-PC. To prevent RNA degradation, 4 μl of RiboLock (40 U μl^−1; Fermentas) was added. Then glass beads, corresponding to 1/3 of the lysis buffer volume, were added and the tubes were vigorously vortexed for 10 × 30 s with 30-s intervals on ice. Cell extracts were transferred to a new tube and, to maximize the yield, 400 μl of ice-cold lysis buffer-PC was used to rinse the glass beads. […]
# For RNA isolation from the TEV eluate aliquot (∼450 μl), the TEV eluate was adjusted to 10 mM EDTA (pH 8.0) and 0.5% SDS. […] RNA concentrations (A260) were determined using a NanoDrop 1000 spectrophotometer (Thermo Scientific). […]
# [6] = target: T1, Rpl10 (endogenous); experiment: cell-based or functional assay
# Rpl3 (endogenous) (S. cerevisiae, sequence (P14126 whole entry): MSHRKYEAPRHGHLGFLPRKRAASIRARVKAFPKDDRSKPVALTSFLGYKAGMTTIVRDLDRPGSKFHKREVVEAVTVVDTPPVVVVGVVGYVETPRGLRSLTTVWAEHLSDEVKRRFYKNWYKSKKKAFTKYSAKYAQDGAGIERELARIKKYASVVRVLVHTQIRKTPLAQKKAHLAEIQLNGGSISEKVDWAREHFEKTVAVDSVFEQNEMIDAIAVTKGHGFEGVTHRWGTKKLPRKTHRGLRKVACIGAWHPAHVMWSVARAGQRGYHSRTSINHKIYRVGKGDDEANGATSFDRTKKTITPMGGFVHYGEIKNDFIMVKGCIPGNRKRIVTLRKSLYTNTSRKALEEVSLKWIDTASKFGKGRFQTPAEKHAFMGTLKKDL
molecule,measurement,setting,value
"amino acids 1–15 of Rpl3: amino acids 1–15 of Rpl3, Y2H bait fused to G4BD (MSHRKYEAPRHGHLG; also: fused to Gal4 DNA-binding domain; UniProt P14126 1-15, looked up, fragment)",Y2H interaction with Rrb1,[1],sufficient to yield a robust Y2H interaction with full-length Rrb1
B1,solubility of newly synthesized Rpl10-2xHA,[2],strongly reduced
B2,"enrichment of the RPL3 mRNA in the NTAP-Rrb1 purification (IgG-sepharose pull-down from cycloheximide-treated cells, TEV eluate, real-time qRT–PCR)",[3],~100 fold
B3,soluble expression in E. coli,[4],inefficient expression of soluble Rrb1
same,enrichment of the specific ribosomal protein mRNA (RPL3),[5],roughly 100 -fold
B4,"enrichment of the RPL10 mRNA in the Sqt1-TAP purification (IgG-sepharose pull-down from cycloheximide-treated cells, TEV eluate, real-time qRT–PCR)",[6],~25 fold
